Test results: publication PMC12232886 (2025)

B1: Tau 151-243 (protein)
chain: SGMPGAPLLPEGPREATRQPSGTGPEDTEGGRHAPELLKHQLLGDLHQEGPPLKGAGGKERPGSKEEVDEDRDVDESSPQDSPPSKASPAQDG

Experiments:
Fyn SH3 [1] = target: T1, Fyn SH3 (Homo sapiens, UniProt P06241); test: NMR titration
Fyn SH3 [2] = target: T1, Fyn SH3; test: ITC

T1 sequence (P06241 79-146): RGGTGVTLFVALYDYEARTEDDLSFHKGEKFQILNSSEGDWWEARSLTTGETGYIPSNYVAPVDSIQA

Binder | Kd (Fyn SH3 [1]) | Kd (Fyn SH3 [2])
ERPGSKEEVDEDRDV [Tau 210-224] | 163 µM | –
B1 | – | 11 µM
QDGRPPQTAAREATS [Tau 241-255] | 327 µM | –
PSGTGPEDTEGGRHA [Tau 170-184] | 127 µM | –
